B1: BBSome complex member BBS5 (Homo sapiens), Q8N3I7 (parent)
chain: MSVLDALWEDRDVRFDLSAQQMKTRPGEVLIDCLDSIEDTKGNNGDRGRLLVTNLRILWHSLALSRVNVSVGYNCILNITTRTANSKLRGQTEALYILTKCNSTRFEFIFTNLVPGSPRLFTSVMAVHRAYETSKMYRDFKLRSALIQNKQLRLLPQEHVYDKINGVWNLSSDQGNLGTFFITNVRIVWHANMNDSFNVSIPYLQIRSIKIRDSKFGLALVIESSQQSGGYVLGFKIDPVEKLQESVKEINSLHKVYSASPIFGVDYEMEEKPQPLEALTVEQIQDDVEIDSDGHTDAFVAYFADGNKQQDREPVFSEELGLAIEKLKDGFTLQGLWEVMS
partner: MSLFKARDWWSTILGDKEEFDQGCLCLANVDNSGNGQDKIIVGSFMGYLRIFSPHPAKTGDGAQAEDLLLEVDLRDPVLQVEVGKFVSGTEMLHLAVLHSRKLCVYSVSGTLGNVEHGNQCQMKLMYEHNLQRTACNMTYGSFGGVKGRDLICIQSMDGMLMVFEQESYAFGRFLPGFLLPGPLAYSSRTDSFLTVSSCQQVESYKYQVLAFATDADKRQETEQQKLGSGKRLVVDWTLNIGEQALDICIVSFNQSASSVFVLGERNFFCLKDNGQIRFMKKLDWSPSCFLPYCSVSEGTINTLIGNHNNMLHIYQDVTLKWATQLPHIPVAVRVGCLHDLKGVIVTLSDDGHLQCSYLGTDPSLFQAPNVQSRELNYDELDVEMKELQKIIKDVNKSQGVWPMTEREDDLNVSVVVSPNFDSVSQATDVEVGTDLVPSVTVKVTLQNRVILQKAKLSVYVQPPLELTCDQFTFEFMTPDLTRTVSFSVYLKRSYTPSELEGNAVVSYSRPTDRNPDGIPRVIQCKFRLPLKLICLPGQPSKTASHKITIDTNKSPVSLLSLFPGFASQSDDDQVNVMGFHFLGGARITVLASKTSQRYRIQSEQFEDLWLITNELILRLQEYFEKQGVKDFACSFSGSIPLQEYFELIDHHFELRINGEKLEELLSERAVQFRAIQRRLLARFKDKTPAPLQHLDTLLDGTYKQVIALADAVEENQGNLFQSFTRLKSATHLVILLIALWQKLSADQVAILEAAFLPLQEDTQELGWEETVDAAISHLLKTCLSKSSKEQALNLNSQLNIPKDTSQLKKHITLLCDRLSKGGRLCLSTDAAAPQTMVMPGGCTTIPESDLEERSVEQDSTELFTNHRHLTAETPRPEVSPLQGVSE

Variants of: B1
Settings: with pthb1_human BBS9, Q3SYG4

| Variant | effect of a mutation on the interaction |
| --- | --- |
| V232E | with no effect |
| V232A | with no effect |
| V232K | with no effect |
| E223A | with no effect |
| E223K | with no effect |
| I209E | with no effect |
| I209K | with no effect |
| S214A | with no effect |
| S214E | with no effect |
| S214K | with no effect |
| I211A | with no effect |
| I211K | with no effect |
| I211E | with no effect |
| L218K | with no effect |
| L218E | with no effect |
| L218A | with no effect |
| G230A | with no effect |
| G230K | with no effect |
| G230E | with no effect |
| Q244A | with no effect |
| Q244E | with no effect |
| P239A | with no effect |
| P239K | with no effect |
| P239E | with no effect |
| F216E | with no effect |
| F216K | with no effect |

| Variant | effect of a mutation on the interaction |
| --- | --- |
| F216A | with no effect |
| E241K | with no effect |
| E241A | with no effect |
| V221E | with no effect |
| V221A | with no effect |
| V221K | with no effect |
| G234E | with no effect |
| G234A | disrupting interaction strength |
| G234K | with no effect |
| A219K | with no effect |
| A219E | with no effect |
| L233A | disrupting interaction strength |
| L233K | with no effect |
| L233E | with no effect |
| S224A | with no effect |
| S224K | with no effect |
| S224E | with no effect |
| K215E | with no effect |
| K215A | with no effect |
| R212A | with no effect |
| R212K | with no effect |
| R212E | with no effect |
| D238N | disrupting interaction strength |
| D238A | with no effect |
| D238K | with no effect |
| D238E | with no effect |

| Variant | effect of a mutation on the interaction |
| --- | --- |
| Q226A | with no effect |
| Q226K | with no effect |
| Q226E | with no effect |
| I222K | with no effect |
| I222E | disrupting interaction strength |
| I222A | with no effect |
| K242A | with no effect |
| K242E | with no effect |
| I237K | with no effect |
| I237E | with no effect |
| I237A | with no effect |
| G217K | with no effect |
| G217E | with no effect |
| G217A | with no effect |
| G217D | disrupting interaction strength |
| F235A | with no effect |
| F235K | disrupting interaction strength |
| F235E | with no effect |
| S225E | with no effect |
| S225A | with no effect |
| S225K | with no effect |
| S228A | with no effect |
| S228K | with no effect |
| S228E | with no effect |
| L220K | with no effect |
| L220A | with no effect |

| Variant | effect of a mutation on the interaction |
| --- | --- |
| L220E | with no effect |
| Y231E | with no effect |
| Y231K | with no effect |
| Y231A | disrupting interaction strength |
| V240A | with no effect |
| V240E | with no effect |
| V240K | with no effect |
| L243A | with no effect |
| L243K | with no effect |
| L243E | with no effect |
| G229A | with no effect |
| G229S | disrupting interaction strength |
| G229K | with no effect |
| G229E | with no effect |
| K210E | with no effect |
| K210A | with no effect |
| Q227E | with no effect |
| Q227A | disrupting interaction strength |
| Q227K | with no effect |
| K236E | disrupting interaction strength |
| K236A | with no effect |
| D213E | with no effect |
| D213K | with no effect |
| D213A | with no effect |

Second part, the variant after the results:

| effect of a mutation on the interaction | Variant |
| --- | --- |
| with no effect | S260K |
| with no effect | S260A |
| with no effect | S260E |
| with no effect | N251K |
| with no effect | N251A |
| with no effect | N251E |
| with no effect | Q244K |
| with no effect | L253A |
| with no effect | L253E |
| with no effect | L253K |
| with no effect | E249K |
| with no effect | E249A |
| with no effect | Y267A |
| with no effect | Y267E |
| with no effect | Y267K |
| with no effect | I262A |
| with no effect | I262E |
| with no effect | I262K |
| with no effect | M269E |
| with no effect | M269A |
| with no effect | M269K |
| with no effect | E268K |
| with no effect | E268A |
| with no effect | K248E |
| with no effect | K248A |
| with no effect | V256K |
| with no effect | V256E |

| effect of a mutation on the interaction | Variant |
| --- | --- |
| with no effect | V256A |
| with no effect | I250K |
| with no effect | I250A |
| with no effect | I250E |
| with no effect | H254A |
| with no effect | H254E |
| with no effect | H254K |
| with no effect | S252K |
| with no effect | S252E |
| with no effect | S252A |
| with no effect | E270K |
| with no effect | E270A |
| with no effect | V247A |
| disrupting interaction strength | V247I |
| with no effect | V247K |
| with no effect | V247E |
| with no effect | K255A |
| with no effect | K255E |
| with no effect | S258E |
| with no effect | S258A |
| with no effect | S258K |
| with no effect | P273A |
| with no effect | P273E |
| with no effect | P273K |
| with no effect | E271A |
| with no effect | E271K |
| with no effect | E245A |

| effect of a mutation on the interaction | Variant |
| --- | --- |
| with no effect | E245K |
| with no effect | Y257A |
| disrupting interaction strength | Y257K |
| with no effect | Y257E |
| with no effect | P261K |
| with no effect | P261A |
| with no effect | P261E |
| with no effect | A259K |
| with no effect | A259E |
| with no effect | K272E |
| with no effect | K272A |
| with no effect | G264A |
| with no effect | G264K |
| with no effect | G264E |
| with no effect | F263E |
| with no effect | F263K |
| with no effect | F263A |
| with no effect | D266K |
| with no effect | D266A |
| with no effect | D266E |
| with no effect | V265K |
| with no effect | V265E |
| with no effect | V265A |
| with no effect | S246E |
| with no effect | S246A |
| with no effect | S246K |

Reference: IntAct's records for PubMed 29039417
